# From paper PMC11880984, “Altered O‐glycosylation of β1‐adrenergic receptor N‐terminal single‐nucleotide variants modulates receptor processing and functional activity” (The Febs Journal, 2024)
# Legend:
# [1] = Western blot, P52↓L53 cleavage in isolated HEK293i membranes; settings: glycan lost; control: S49 (WT) variant
# [2] = Flow cytometry, surface full-length receptor, cMyc antibody, HEK293i; settings: control: S49 (WT) variant
# [3] = Western blot, cleavage at R31↓L32; HEK293, CHO-K1, NRVM; settings: glycan lost; control: S49 (WT) variant
# [4] = Western blot, N-terminal cleavage, rat cardiomyocytes; settings: glycan lost
# [5] = Western blot, N-terminal cleavage, CHO-ldlD cells
# [6] = target: human β1-adrenergic receptor S49G389 variant (human) (UniProt P08588)
# [7] = target: human β1-adrenergic receptor G49G389 variant (human) (UniProt P08588)
# [8] = target: human β1-adrenergic receptor G49R389 variant (human) (UniProt P08588)
# Sequence of human β1-adrenergic receptor G49R389 variant (human) (P08588 other isoform, or with tags, fused parts or gaps S49G | R389 (the paper's WT allele at rs1801253) | mutant): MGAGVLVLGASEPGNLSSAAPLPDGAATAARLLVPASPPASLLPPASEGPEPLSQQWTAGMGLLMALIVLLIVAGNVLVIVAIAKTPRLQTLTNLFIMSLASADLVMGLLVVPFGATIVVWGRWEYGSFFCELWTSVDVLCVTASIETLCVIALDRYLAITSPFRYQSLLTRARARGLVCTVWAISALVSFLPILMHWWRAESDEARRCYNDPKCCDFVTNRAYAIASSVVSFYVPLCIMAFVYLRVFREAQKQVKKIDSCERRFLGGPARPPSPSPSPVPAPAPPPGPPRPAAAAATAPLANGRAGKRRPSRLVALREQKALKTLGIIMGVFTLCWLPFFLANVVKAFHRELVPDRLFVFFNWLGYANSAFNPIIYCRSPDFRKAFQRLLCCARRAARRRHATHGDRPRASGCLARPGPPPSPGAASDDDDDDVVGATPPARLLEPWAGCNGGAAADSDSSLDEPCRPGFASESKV
# Sequence of β-arrestin2 fused to Renilla luciferaseII (P32121 whole entry, the tested form may be a part): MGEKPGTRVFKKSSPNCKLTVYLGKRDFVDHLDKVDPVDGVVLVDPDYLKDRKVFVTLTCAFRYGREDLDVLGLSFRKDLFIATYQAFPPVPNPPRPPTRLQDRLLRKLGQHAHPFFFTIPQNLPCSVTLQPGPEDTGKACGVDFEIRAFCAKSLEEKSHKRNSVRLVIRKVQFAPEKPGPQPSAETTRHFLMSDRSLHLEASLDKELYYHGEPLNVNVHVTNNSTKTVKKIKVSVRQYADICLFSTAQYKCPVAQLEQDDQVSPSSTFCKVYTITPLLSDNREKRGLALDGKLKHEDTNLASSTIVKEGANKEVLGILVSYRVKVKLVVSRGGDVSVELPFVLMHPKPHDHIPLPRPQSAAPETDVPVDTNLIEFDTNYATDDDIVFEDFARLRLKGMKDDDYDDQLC
# Sequence of human β1-adrenergic receptor S49G389 variant (human) (P08588 whole entry, change not shown): as the sequence (P08588 other isoform, or with tags, fused parts or gaps S49G | R389 (the paper's WT allele at rs1801253) | mutant) above, with G49S, R389G counted along it
# Sequence of human β1-adrenergic receptor G49G389 variant (human) (P08588 whole entry S49G): as the sequence (P08588 other isoform, or with tags, fused parts or gaps S49G | R389 (the paper's WT allele at rs1801253) | mutant) above, with R389G counted along it
substance,measurement,setting,value
human β1‐adrenergic receptor (hβ1AR): G49 variant,other: proteolytic processing,[1],increases
same,expression_or_secretion,[2]; glycan lost,no change
same,other: proteolytic processing,[3],no change
human β1‐adrenergic receptor (hβ1AR): Galnt2 KO,other: proteolytic processing,[4]; control: S49 (WT) in WT NRVMs,increases
same,other: proteolytic processing,[4]; control: T29 variant in WT NRVMs,no change
human β1‐adrenergic receptor (hβ1AR): GalNAc only (Tn),other: proteolytic processing,"[5]; glycan changed form, control: S49 (WT) in CHO-ldlD with Gal + GalNAc",increases
same,other: proteolytic processing,"[5]; glycan changed form, control: T29 variant in CHO-ldlD with Gal + GalNAc",no change
human β1‐adrenergic receptor (hβ1AR): T29 variant,expression_or_secretion,[2]; glycan gained,increases
"human β1‐adrenergic receptor (hβ1AR): no GalNAc, no Gal",other: proteolytic processing,"[5]; glycan lost, control: S49 (WT) in CHO-ldlD with Gal + GalNAc",increases
β-arrestin2 fused to Renilla luciferaseII (from UniProt P32121 1-409) (natural protein),"E max of isoproterenol-induced β-arrestin2 recruitment to the plasma membrane, enhanced bystander BRET (β-arrestin2-RlucII with rGFP-CAAX) in HEK293S cells, normalised to S49R389",[6],89.4 % WT E max
same,"E max of isoproterenol-induced β-arrestin2 recruitment to the plasma membrane, enhanced bystander BRET (β-arrestin2-RlucII with rGFP-CAAX) in HEK293S cells, normalised to S49R389",[7],83.3 % WT E max
same,"E max of isoproterenol-induced β-arrestin2 recruitment to the plasma membrane, enhanced bystander BRET (β-arrestin2-RlucII with rGFP-CAAX) in HEK293S cells, normalised to S49R389",[8],97.8 % WT E max
